B1: Col2a1 intron 6 (human) (dsDNA)
DNA 1: GGCAGGTAACTGAGGACTTTCTTTATAGAATCCCAG
DNA 2: CTGGGATTCTATAAAGAAAGTCCTCAGTTACCTGCC
B2: Col2a1 intron 6 mutant (dsDNA)
DNA 1: GGCAGATAGCTGTTTTCCTTTTCGACAGAAACCCAG
DNA 2: CTGGGTTTCTGTCGAAAAGGAAAACAGCTATCTGCC

Target: SOX9 (Homo sapiens, UniProt P48436 1-509)
Assay: EMSA; EMSA with recombinant human SOX9 and 32P probes as in cited ref 67; buffer, salt, pH and temperature not given
Details: protein: recombinant; chain copies: 2; label: 32P-dCTP Klenow fill-in

SOX9, sequence (P48436 whole entry): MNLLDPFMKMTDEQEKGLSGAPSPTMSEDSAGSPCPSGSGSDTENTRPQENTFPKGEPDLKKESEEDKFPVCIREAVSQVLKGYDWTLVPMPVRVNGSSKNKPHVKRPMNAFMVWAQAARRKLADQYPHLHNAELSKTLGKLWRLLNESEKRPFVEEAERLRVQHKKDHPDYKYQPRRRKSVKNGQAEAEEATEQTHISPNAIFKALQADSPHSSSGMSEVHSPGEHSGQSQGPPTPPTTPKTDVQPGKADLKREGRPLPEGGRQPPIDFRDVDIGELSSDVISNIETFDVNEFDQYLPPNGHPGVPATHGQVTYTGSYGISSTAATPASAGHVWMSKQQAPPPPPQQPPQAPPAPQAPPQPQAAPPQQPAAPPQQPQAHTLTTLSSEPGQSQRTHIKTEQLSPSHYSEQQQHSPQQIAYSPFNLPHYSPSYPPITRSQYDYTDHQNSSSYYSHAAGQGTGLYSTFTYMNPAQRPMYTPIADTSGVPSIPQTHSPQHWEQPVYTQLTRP

Row | Binder | binding result
1 | B1 | binds
2 | B2 | no binding

From publication PMC2852419, “Identification of SOX9 Interaction Sites in the Genome of Chondrocytes”
